Experimental findings from article PMC10878242 are described below.

The assay has as its target mAb-1E7. Briefly: SPR; Biacore 8K; mAb-1E7 immobilized on a Protein G chip; PCV2-Cap or Nb61 injected at 30 µL/min, 1.5625 to 25 nM; 10 mM HEPES pH 7.4, 150 mM NaCl, 3 mM EDTA, 0.05% Tween 20.

mAb-1E7, sequence (heavy, as listed by the source, chain 1 of 2): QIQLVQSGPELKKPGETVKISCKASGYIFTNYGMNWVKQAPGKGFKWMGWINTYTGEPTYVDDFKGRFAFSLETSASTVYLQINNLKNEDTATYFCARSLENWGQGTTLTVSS
mAb-1E7, sequence (light, as listed by the source, chain 2 of 2): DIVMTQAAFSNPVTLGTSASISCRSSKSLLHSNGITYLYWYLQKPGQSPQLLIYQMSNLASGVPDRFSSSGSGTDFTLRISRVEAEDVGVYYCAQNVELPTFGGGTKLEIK

B1: Nb61 (VHH)
VHH: QVQLQESGGGSVQAGGSLRLSCAGSDFPYCSYDMSWYRQAPGKEREFVSGIDRDGTIRYADAVKGRFTISQGDAKNTLYLQMNSLKPEDTAMYYCKTTPRNYNDFLGCVDYWGQGTQVTVSS
On to B1, for which the Kd turned out to be 0.012 µM, the dissociation rate constant (koff) came out at 0.0222 s⁻¹ and the kon turned out to be 1.86e+06 M⁻¹ s⁻¹.
